# Laboratory results taken from patent US20260234223A1 (LEYDEN LABORATORIES B V, published 2026).
# B1: COV30-14 (antibody, V domains shown)
# VH: QVQLVQSGAEVKKPGASVKVSCQTSGYTFTSYYMHWVRQAPGQGLEWMGLITPSGDDTYYAQRFQGRVTMTRDTSTSPTYMELSSLTSEDTAVYYCAKMSRAGGFDVWGQGTLVTVSS
# VL: EVVLTQSPGTLSLSPGERATLSCRASQSITGRYLAWYQQKPGQAPRLLMYGESSRVTGIPDRFSGGGSGTDFTLTISRLEPEDFAVYYCQHFASSPPTYTFGQGTKLEIR
# notes: also called the antibody according to the invention; the antibody according to invention
# Tests used:
# MERS-CoV Spike antigen = biological target: T1, MERS-CoV Spike antigen (MERS-CoV, UniProt K9N5Q8 18-1291); experiment: cell-based or functional assay
# T1 sequence: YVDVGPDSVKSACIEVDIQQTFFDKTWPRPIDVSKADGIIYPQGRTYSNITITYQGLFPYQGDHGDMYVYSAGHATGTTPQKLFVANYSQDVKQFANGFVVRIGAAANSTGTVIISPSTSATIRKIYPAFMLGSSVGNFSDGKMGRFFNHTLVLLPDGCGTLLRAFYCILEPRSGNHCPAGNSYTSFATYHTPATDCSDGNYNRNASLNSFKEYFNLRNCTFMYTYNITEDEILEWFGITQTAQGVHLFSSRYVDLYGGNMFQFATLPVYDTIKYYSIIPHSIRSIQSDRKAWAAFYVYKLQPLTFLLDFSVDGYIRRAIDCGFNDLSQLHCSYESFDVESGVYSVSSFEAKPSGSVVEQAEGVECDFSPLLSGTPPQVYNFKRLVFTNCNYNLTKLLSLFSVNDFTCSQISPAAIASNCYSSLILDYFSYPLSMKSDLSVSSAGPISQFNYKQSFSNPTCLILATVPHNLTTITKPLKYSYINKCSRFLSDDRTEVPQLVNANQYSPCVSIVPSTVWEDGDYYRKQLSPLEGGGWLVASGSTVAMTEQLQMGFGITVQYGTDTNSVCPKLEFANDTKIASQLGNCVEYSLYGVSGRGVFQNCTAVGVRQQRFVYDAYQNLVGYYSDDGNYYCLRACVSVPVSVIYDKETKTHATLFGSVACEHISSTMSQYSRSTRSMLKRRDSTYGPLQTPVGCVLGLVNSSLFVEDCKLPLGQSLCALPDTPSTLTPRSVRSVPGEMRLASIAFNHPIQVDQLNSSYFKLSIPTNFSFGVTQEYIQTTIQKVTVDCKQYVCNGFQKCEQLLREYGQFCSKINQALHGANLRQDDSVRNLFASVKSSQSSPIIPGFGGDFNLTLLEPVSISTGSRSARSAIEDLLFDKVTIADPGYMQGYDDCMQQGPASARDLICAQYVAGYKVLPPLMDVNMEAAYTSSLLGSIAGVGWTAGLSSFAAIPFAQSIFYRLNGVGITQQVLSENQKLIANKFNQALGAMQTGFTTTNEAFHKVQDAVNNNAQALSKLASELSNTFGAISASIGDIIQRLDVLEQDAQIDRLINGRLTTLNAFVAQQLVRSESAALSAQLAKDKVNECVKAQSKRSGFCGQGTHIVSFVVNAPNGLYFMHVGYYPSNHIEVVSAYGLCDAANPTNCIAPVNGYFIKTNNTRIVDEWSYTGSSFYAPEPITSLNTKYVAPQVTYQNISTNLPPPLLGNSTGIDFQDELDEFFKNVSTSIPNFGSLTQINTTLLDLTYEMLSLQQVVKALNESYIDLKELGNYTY
# [1] = biological target: T2, SARS-CoV-2 Spike antigen (Wuhan, wildtype) (SARS-CoV-2 (Wuhan), UniProt P0DTC2 14-1208); experiment: cell-based or functional assay
# SARS-CoV-1 Spike antigen [2] = biological target: T3, SARS-CoV-1 Spike antigen (SARS-CoV-1, UniProt P59594 14-1190); experiment: cell-based or functional assay
# hCoV-229E Spike antigen [3] = biological target: T4, hCoV-229E Spike antigen (human coronavirus 229E, UniProt P15423 16-1110); experiment: cell-based or functional assay
# T4 sequence: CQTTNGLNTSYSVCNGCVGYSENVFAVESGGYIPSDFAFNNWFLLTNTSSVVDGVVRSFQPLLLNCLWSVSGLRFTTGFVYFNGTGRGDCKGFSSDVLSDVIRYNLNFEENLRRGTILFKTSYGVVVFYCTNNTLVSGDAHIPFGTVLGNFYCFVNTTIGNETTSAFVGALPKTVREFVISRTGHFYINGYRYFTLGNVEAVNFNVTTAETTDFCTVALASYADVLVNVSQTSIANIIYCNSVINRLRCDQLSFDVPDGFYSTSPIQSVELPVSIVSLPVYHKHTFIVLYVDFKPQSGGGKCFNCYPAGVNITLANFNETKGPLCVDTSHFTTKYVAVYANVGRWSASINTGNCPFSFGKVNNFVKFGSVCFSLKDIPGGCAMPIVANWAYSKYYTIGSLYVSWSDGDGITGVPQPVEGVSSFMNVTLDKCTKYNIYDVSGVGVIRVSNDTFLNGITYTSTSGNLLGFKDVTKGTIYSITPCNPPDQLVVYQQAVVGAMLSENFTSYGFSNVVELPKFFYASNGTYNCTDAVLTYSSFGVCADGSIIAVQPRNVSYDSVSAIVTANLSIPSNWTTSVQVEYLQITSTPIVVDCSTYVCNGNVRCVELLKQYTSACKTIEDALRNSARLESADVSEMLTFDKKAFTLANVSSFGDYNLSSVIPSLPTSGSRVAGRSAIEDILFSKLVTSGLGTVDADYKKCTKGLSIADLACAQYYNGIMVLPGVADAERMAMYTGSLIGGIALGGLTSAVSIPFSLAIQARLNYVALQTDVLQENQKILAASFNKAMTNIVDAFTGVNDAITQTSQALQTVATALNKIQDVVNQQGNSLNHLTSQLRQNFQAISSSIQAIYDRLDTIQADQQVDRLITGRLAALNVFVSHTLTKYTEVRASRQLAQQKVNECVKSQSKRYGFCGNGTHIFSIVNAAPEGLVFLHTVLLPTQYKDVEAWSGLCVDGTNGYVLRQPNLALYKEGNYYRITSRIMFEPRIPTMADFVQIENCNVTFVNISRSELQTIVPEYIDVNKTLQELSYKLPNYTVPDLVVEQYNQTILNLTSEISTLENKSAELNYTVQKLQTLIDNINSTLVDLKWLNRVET
# [4] = biological target: T2, SARS-CoV-2 Spike antigen (Wuhan, …); experiment: cell-based or functional assay; remark: listed apart in the source
# [5] = biological target: T5, human coronavirus NL63 Spike antigen (human coronavirus NL63, UniProt Q6Q1S2 19-1291); experiment: cell-based or functional assay
# T5 sequence: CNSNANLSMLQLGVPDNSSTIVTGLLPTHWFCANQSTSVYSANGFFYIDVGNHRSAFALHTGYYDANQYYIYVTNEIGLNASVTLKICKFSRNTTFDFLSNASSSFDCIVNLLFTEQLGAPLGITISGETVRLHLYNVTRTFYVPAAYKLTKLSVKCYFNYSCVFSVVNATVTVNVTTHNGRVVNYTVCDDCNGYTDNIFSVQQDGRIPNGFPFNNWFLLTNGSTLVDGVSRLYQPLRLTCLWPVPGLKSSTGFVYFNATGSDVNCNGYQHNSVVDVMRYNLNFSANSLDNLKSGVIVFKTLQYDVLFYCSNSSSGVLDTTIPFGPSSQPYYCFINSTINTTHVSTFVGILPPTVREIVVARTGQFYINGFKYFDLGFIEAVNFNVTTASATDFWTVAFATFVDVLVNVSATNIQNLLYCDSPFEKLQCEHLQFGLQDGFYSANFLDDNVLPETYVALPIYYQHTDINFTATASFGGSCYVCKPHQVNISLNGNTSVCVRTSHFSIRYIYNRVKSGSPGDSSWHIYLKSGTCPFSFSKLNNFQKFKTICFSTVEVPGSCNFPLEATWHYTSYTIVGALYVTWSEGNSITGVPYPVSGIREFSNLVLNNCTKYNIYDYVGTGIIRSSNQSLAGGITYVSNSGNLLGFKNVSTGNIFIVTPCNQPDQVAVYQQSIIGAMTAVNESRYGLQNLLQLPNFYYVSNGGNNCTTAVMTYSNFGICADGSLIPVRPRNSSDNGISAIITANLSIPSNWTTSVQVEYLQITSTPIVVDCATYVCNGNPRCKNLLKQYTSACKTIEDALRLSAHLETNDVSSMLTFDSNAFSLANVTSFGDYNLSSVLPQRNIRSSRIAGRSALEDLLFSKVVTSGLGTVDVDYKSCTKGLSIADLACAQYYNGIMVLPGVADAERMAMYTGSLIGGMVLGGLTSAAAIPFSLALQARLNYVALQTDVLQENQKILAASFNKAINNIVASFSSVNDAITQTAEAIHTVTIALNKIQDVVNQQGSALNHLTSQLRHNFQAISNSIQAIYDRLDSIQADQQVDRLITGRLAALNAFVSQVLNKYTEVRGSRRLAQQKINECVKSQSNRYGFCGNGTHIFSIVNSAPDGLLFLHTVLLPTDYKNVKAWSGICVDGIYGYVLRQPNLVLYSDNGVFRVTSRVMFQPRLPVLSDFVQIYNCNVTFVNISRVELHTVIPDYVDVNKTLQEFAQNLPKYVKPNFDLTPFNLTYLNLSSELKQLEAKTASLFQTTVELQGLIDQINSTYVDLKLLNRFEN
# SARS-CoV-1 Spike antigen [6] = biological target: T3, SARS-CoV-1 Spike antigen; experiment: cell-based or functional assay; remark: listed apart in the source
# [7] = biological target: T5, human coronavirus NL63 Spike antigen; experiment: ELISA on coated spike antigen
# hCoV-229E Spike antigen [8] = biological target: T4, hCoV-229E Spike antigen; experiment: MSD multiplex binding assay, Coronavirus Panel 3
binder,measurement,setting,value
B1,Live virus neutralization IC50,MERS-CoV Spike antigen,3.68 µg/mL
same,Live virus neutralization IC50,[1],25.4 µg/mL
same,Live virus neutralization IC50,SARS-CoV-1 Spike antigen [2],4.95 µg/mL
same,Pseudovirion neutralization IC50,hCoV-229E Spike antigen [3],> 250 µg/mL
same,Pseudovirion neutralization IC50 (geometric mean),[4],0.211 µg/mL
same,Pseudovirion neutralization IC50,[5],> 250 µg/mL
same,Pseudovirion neutralization IC50 (geometric mean),SARS-CoV-1 Spike antigen [6],5.89 µg/mL
same,binding result,[7],no binding (tested: range tested 10.0-0.000002 nM)
same,binding result,hCoV-229E Spike antigen [8],no binding (tested: dilution range starting from 555 ng/ml)
